Data from US20180291110A1 (Hoffmann-La Roche, published 2018).

Target: T1, human transferrin receptor (recombinant, for surface plasmon resonance) (human, UniProt P02786 89-760)
T1 construct: also called huTfR; human transferrin receptor-biotinylated
Experiment: SPR 25C

T1 sequence (P02786 89-760 limits assumed): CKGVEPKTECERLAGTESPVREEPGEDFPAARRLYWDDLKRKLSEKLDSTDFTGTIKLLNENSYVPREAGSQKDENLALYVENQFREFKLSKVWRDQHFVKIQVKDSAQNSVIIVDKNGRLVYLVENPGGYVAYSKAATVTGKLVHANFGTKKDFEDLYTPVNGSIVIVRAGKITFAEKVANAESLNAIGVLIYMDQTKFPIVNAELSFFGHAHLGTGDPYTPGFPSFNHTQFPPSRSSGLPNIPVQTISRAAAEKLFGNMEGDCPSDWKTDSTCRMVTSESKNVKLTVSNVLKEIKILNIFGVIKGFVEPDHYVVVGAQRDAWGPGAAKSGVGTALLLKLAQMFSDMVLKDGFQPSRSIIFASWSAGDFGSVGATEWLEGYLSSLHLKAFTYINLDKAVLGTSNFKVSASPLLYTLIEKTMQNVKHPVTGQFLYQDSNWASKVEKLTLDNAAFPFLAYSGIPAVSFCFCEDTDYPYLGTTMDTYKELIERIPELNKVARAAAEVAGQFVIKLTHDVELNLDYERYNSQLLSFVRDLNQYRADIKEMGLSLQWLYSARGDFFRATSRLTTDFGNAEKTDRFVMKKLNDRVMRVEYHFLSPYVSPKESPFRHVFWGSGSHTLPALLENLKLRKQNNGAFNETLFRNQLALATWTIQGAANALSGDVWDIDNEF

Row | Binder | koff
1 | 2/99 VH5/VL4 (antibody, V domains shown) VH: QSMEETGGGLIQPGGSLRLSCAASGFSLSSYAMSWVRQAPGKGLEWVGYIWSGGSTDYADSVKGRFTISRDNSKNTLYLQMNSLRAEDTAVYYCARRYGTSYPDYGDANGFDPWGPGTLVTVSS VL: AYQMTQSPSSLSASVGDRVTITCRASQSISSYLSWYQQKPGKAPKLLIYRASTLASGVPSRFSGSGSGTDFTLTISSLQPEDFATYYCQQSYSSSNVDNTFGGGTKVEIK | 0.00238 s⁻¹
2 | 2/99 VH6/VL4 (antibody, V domains shown) VH: QQLVETGGGLIQPGGSLRLSCAASGFSLSSYAMSWVRQAPGKGLEWIGYIWSGGSTDYADSVKGRFTISRDNSKNTLYLQMNSLRAEDTAVYYCARRYGTSYPDYGDANGFDPWGQGTLVTVSS VL: AYQMTQSPSSLSASVGDRVTITCRASQSISSYLSWYQQKPGKAPKLLIYRASTLASGVPSRFSGSGSGTDFTLTISSLQPEDFATYYCQQSYSSSNVDNTFGGGTKVEIK | 0.00187 s⁻¹
3 | 2/99 VH7/VL4 (antibody, V domains shown) VH: QQLVETGGGLIQPGGSLRLSCAASGFSLSSYAMSWVRQAPGKGLEWIGYIWSGGSTDYASWAKGRFTISRDNSKNTLYLQMNSLRAEDTAVYYCARRYGTSYPDYGDANGFDPWGQGTLVTVSS VL: AYQMTQSPSSLSASVGDRVTITCRASQSISSYLSWYQQKPGKAPKLLIYRASTLASGVPSRFSGSGSGTDFTLTISSLQPEDFATYYCQQSYSSSNVDNTFGGGTKVEIK | 0.00125 s⁻¹
4 | 2/99 VH8/VL4 (antibody, V domains shown) VH: QQLVETGGGLIQPGGSLRLSCAASGFSLSSYAMSWVRQAPGKGLEWIGYIWSGGSTDYASWAKGRFTISKTSTTLYLQMNSLRAEDTAVYYCARRYGTSYPDYGDANGFDPWGQGTLVTVSS VL: AYQMTQSPSSLSASVGDRVTITCRASQSISSYLSWYQQKPGKAPKLLIYRASTLASGVPSRFSGSGSGTDFTLTISSLQPEDFATYYCQQSYSSSNVDNTFGGGTKVEIK | 0.000788 s⁻¹
5 | 2/99 VH9/VL4 (antibody, V domains shown) VH: QQLLESGGGLVQPGGSLRLSCAASGFTFSSYAMSWVRQAPGKGLEWVGYIWSGGSTDYADSVKGRFTISRDNSKNTLYLQMNSLRAEDTAVYYCAKRYGTSYPDYGDANGFDPWGQGTLVTVSS VL: AYQMTQSPSSLSASVGDRVTITCRASQSISSYLSWYQQKPGKAPKLLIYRASTLASGVPSRFSGSGSGTDFTLTISSLQPEDFATYYCQQSYSSSNVDNTFGGGTKVEIK | 0.0027 s⁻¹
6 | 2/99 VH13/VL4 (antibody, V domains shown) VH: QVQLQESGPGLVKPSETLSLTCTVSGFSLSSYAMSWIRQPPGKGLEWIGYIWSGGSTDYNPSLKSRVTISVDTSKNQVSLKLSSVTAADTAVYYCARRYGTSYPDYGDANGFDPWGQGTLVTVSS VL: AYQMTQSPSSLSASVGDRVTITCRASQSISSYLSWYQQKPGKAPKLLIYRASTLASGVPSRFSGSGSGTDFTLTISSLQPEDFATYYCQQSYSSSNVDNTFGGGTKVEIK | 0.0013 s⁻¹
7 | 2/99 VH15/VL4 (antibody, V domains shown) VH: QQLQESGPGLVKPSETLSLTCTVSGFSLSSYAMSWVRQPPGKGLEWIGYIWSGGSTDYNPSLKSRVTISVDTSKNQVSLKLSSVTAADTAVYYCARRYGTSYPDYGDANGFDPWGQGTLVTVSS VL: AYQMTQSPSSLSASVGDRVTITCRASQSISSYLSWYQQKPGKAPKLLIYRASTLASGVPSRFSGSGSGTDFTLTISSLQPEDFATYYCQQSYSSSNVDNTFGGGTKVEIK | 0.00134 s⁻¹
8 | 2/99 VH16/VL4 (antibody, V domains shown) VH: QQLQESGPGLVKPSETLSLTCTVSGFSLSSYAMSWVRQPPGKGLEWIGYIWSGGSTDYNPSLKSRVTISVDTSKNQVSLKLSSVTAADTAVYYCARRYGTSYPDYGDANGFDPWGPGTLVTVSS VL: AYQMTQSPSSLSASVGDRVTITCRASQSISSYLSWYQQKPGKAPKLLIYRASTLASGVPSRFSGSGSGTDFTLTISSLQPEDFATYYCQQSYSSSNVDNTFGGGTKVEIK | 0.00127 s⁻¹
9 | 2/99 VH18/VL4 (antibody, V domains shown) VH: QVQLQESGPGLVKPSQTLSLTCTVSGFSLSSYAMSWIRQHPGKGLEWIGYIWSGGSTDYAPSLKSRVTISVDTSKNQFSLKLSSVTAADTAVYYCARRYGTSYPDYGDANGFDPWGQGTLVTVSS VL: AYQMTQSPSSLSASVGDRVTITCRASQSISSYLSWYQQKPGKAPKLLIYRASTLASGVPSRFSGSGSGTDFTLTISSLQPEDFATYYCQQSYSSSNVDNTFGGGTKVEIK | 0.00335 s⁻¹
10 | 2/99 VH20/VL4 (antibody, V domains shown) VH: QSMQESGPGLVKPSQTLSLTCTVSGFSLSSYAMSWIRQHPGKGLEWIGYIWSGGSTDYAPSLKSRVTISVDTSKNQVSLKLSSVTAADTAVYYCARRYGTSYPDYGDANGFDPWGQGTLVTVSS VL: AYQMTQSPSSLSASVGDRVTITCRASQSISSYLSWYQQKPGKAPKLLIYRASTLASGVPSRFSGSGSGTDFTLTISSLQPEDFATYYCQQSYSSSNVDNTFGGGTKVEIK | 0.00436 s⁻¹
11 | 2/99 VH22/VL4 (antibody, V domains shown) VH: QSMQESGPGLVKPSQTLSLTCTVSGFSLSSYAMSWVRQHPGKGLEWIGYIWSGGSTDYASWAKSRVTISVDTSKNQVSLKLSSVTAADTAVYYCARRYGTSYPDYGDANGFDPWGQGTLVTVSS VL: AYQMTQSPSSLSASVGDRVTITCRASQSISSYLSWYQQKPGKAPKLLIYRASTLASGVPSRFSGSGSGTDFTLTISSLQPEDFATYYCQQSYSSSNVDNTFGGGTKVEIK | 0.00118 s⁻¹
12 | 2/99 VH23-DANG/VL4 (antibody, V domains shown) VH: QSMQESGPGLVKPSQTLSLTCTVSGFSLSSYAMSWIRQHPGKGLEWIGYIWSGGSTDYASWAKSRVTISKTSTTVSLKLSSVTAADTAVYYCARRYGTSYPDYGDANGFDPWGQGTLVTVSS VL: AYQMTQSPSSLSASVGDRVTITCRASQSISSYLSWYQQKPGKAPKLLIYRASTLASGVPSRFSGSGSGTDFTLTISSLQPEDFATYYCQQSYSSSNVDNTFGGGTKVEIK | 0.000761 s⁻¹
13 | 2/99 VH5/VL5 (antibody, V domains shown) VH: QSMEETGGGLIQPGGSLRLSCAASGFSLSSYAMSWVRQAPGKGLEWVGYIWSGGSTDYADSVKGRFTISRDNSKNTLYLQMNSLRAEDTAVYYCARRYGTSYPDYGDANGFDPWGPGTLVTVSS VL: DIQMTQSPSSLSASVGDRVTITCRASQSISSYLSWYQQKPGKAPKLLIYRASTLASGVPSRFSGSGSGTDFTLTISSLQPEDFATYYCQQSYSSSNVDNTFGGGTKVEIK | 0.00253 s⁻¹
14 | 2/99 VH6/VL5 (antibody, V domains shown) VH: QQLVETGGGLIQPGGSLRLSCAASGFSLSSYAMSWVRQAPGKGLEWIGYIWSGGSTDYADSVKGRFTISRDNSKNTLYLQMNSLRAEDTAVYYCARRYGTSYPDYGDANGFDPWGQGTLVTVSS VL: DIQMTQSPSSLSASVGDRVTITCRASQSISSYLSWYQQKPGKAPKLLIYRASTLASGVPSRFSGSGSGTDFTLTISSLQPEDFATYYCQQSYSSSNVDNTFGGGTKVEIK | 0.00166 s⁻¹
15 | 2/99 VH7/VL5 (antibody, V domains shown) VH: QQLVETGGGLIQPGGSLRLSCAASGFSLSSYAMSWVRQAPGKGLEWIGYIWSGGSTDYASWAKGRFTISRDNSKNTLYLQMNSLRAEDTAVYYCARRYGTSYPDYGDANGFDPWGQGTLVTVSS VL: DIQMTQSPSSLSASVGDRVTITCRASQSISSYLSWYQQKPGKAPKLLIYRASTLASGVPSRFSGSGSGTDFTLTISSLQPEDFATYYCQQSYSSSNVDNTFGGGTKVEIK | 0.00135 s⁻¹

The next lines start with the values.

Row | koff | Binder
16 | 0.00388 s⁻¹ | 2/99 VH11/VL4 (antibody, V domains shown) VH: QQLLESGGGLVQPGGSLRLSCAASGFSLSSYAMSWVRQAPGKGLEWVGYIWSGGSTDYADSVKGRFTISRDNSKNTLYLQMNSLRAEDTAVYYCARRYGTSYPDYGDANGFDPWGQGTLVTVSS VL: AYQMTQSPSSLSASVGDRVTITCRASQSISSYLSWYQQKPGKAPKLLIYRASTLASGVPSRFSGSGSGTDFTLTISSLQPEDFATYYCQQSYSSSNVDNTFGGGTKVEIK
17 | 0.00311 s⁻¹ | 2/99 VH12/VL4 (antibody, V domains shown) VH: QVQLQESGPGLVKPSETLSLTCTVSGFSLSSYAMSWIRQPPGKGLEWIGYIWSGGSTDYNPSLKSRVTISVDTSKNQFSLKLSSVTAADTAVYYCARRYGTSYPDYGDANGFDPWGQGTLVTVSS VL: AYQMTQSPSSLSASVGDRVTITCRASQSISSYLSWYQQKPGKAPKLLIYRASTLASGVPSRFSGSGSGTDFTLTISSLQPEDFATYYCQQSYSSSNVDNTFGGGTKVEIK
18 | 0.000723 s⁻¹ | 2/99 VH17/VL4 (antibody, V domains shown) VH: QQLQESGPGLVKPSETLSLTCTVSGFSLSSYAMSWVRQPPGKGLEWIGYIWSGGSTDYNPSLKSRVTISKDTSKNQVSLKLSSVTAADTAVYYCARRYGTSYPDYGDANGFDPWGPGTLVTVSS VL: AYQMTQSPSSLSASVGDRVTITCRASQSISSYLSWYQQKPGKAPKLLIYRASTLASGVPSRFSGSGSGTDFTLTISSLQPEDFATYYCQQSYSSSNVDNTFGGGTKVEIK
19 | 0.001 s⁻¹ | 2/99 VH19/VL4 (antibody, V domains shown) VH: QSMQESGPGLVKPSQTLSLTCTVSGFSLSSYAMSWIRQHPGKGLEWIGYIWSGGSTDYAPSLKSRVTISVDTSKNQFSLKLSSVTAADTAVYYCARRYGTSYPDYGDANGFDPWGQGTLVTVSS VL: AYQMTQSPSSLSASVGDRVTITCRASQSISSYLSWYQQKPGKAPKLLIYRASTLASGVPSRFSGSGSGTDFTLTISSLQPEDFATYYCQQSYSSSNVDNTFGGGTKVEIK
20 | 0.00146 s⁻¹ | 2/99 VH21/VL4 (antibody, V domains shown) VH: QSMQESGPGLVKPSQTLSLTCTVSGFSLSSYAMSWIRQHPGKGLEWIGYIWSGGSTDYASWAKSRVTISVDTSKNQVSLKLSSVTAADTAVYYCARRYGTSYPDYGDANGFDPWGQGTLVTVSS VL: AYQMTQSPSSLSASVGDRVTITCRASQSISSYLSWYQQKPGKAPKLLIYRASTLASGVPSRFSGSGSGTDFTLTISSLQPEDFATYYCQQSYSSSNVDNTFGGGTKVEIK
21 | 0.00271 s⁻¹ | 2/99 VH1/VL5 (antibody, V domains shown) VH: VQLVETGGGLIQPGGSLRLSCAASGFSLSSYAMSWVRQAPGKGLEWVGYIWSGGSTDYADSVKGRFTISRDNSKNTLYLQMNSLRAEDTAVYYCARRYGTSYPDYGDANGFDPWGQGTLVTVSS VL: DIQMTQSPSSLSASVGDRVTITCRASQSISSYLSWYQQKPGKAPKLLIYRASTLASGVPSRFSGSGSGTDFTLTISSLQPEDFATYYCQQSYSSSNVDNTFGGGTKVEIK
22 | 0.00262 s⁻¹ | 2/99 VH2/VL5 (antibody, V domains shown) VH: EVQLVETGGGLIQPGGSLRLSCAASGFSLSSYAMSWVRQAPGKGLEWVGYIWSGGSTDYADSVKGRFTISRDNSKNTLYLQMNSLRAEDTAVYYCARRYGTSYPDYGDANGFDPWGQGTLVTVSS VL: DIQMTQSPSSLSASVGDRVTITCRASQSISSYLSWYQQKPGKAPKLLIYRASTLASGVPSRFSGSGSGTDFTLTISSLQPEDFATYYCQQSYSSSNVDNTFGGGTKVEIK
